Reference: publication PMC4585926, “A RANKL mutant used as an inter-species vaccine for efficient immunotherapy of osteoporosis” (Scientific Reports, 2015)

B1: human RANKL ectodomain (residues 158-317), wild type [human] / mouse RANK extracellular domain [mouse] (parent complex)
chain 1: SKLEAQPFAHLTINATDIPSGSHKVSLSSWYHDRGWAKISNMTFSNGKLIVNQDGFYYLYANICFRHHETSGDLATEYLQLMVYVTKTSIKIPSSHTLMKGGSTKYWSGNSEFHFYSINVGGFFKLRSGEEISIEVSNPSLLDPDQDATYFGAFKVRDID
chain 2: VTPPCTQERHYEHLGRCCSRCEPGKYLSSKCTPTSDSVCLPCGPDEYLDTWNEEDKCLLHKVCDAGKALVAVDPGNHTAPRRCACTAGYHWNSDCECCRRNTECAPGFGAQHPLQLNKDTVCTPCLLGFFSDVFSSTDKCKPWTNCTLLGKLEAHQGTTESDVVCSSSMTLRRPPKEAQAYLPS

Variants of: B1
Test: SPR (Biacore, chelating NTA sensor chip); hRANKL or mutant injected at 0, 0.47, 0.94, 1.88, 3.75, 7.5, 15 and 30 nM; parent: 0.156 nM

In order of falling Kd:
1. chain 1 SKLEAQPFAHLTINATDIPSGSHKVSLSSWYHDRGWAKISNMTFSNGKLIVNQDGFYYLYANICFAHHETSGDLATEYLQLMVYVTKTSIKIPSSHTLMKGGSTKYWSGNSEFHFYSINVGGFFKLRSGEEISIEVSNPSLLAPDQDATYFGAFKVRDID [chain 1 R66A, chain 1 D143A]  39.4 nM
2. chain 1 SKLEAQPFAHLTINATDIPSGSHKVSLSSWYHDRGWAKISNMTFSNGKLIVNQDGFYYLYANICFAHHETSGDLATEYLQLMVYVTKTSIKIPSSHTLMKGGSTKYWSGNSEFHFYSINVGGFFKLRSGEEISIEVSNPSLLDPDQDATYFGAFKVRDID [chain 1 R66A]  10.7 nM
3. chain 1 SKLEAQPFAHLTINATDIPSGSHKVSLSSWYHDRGWAKISNMTFSNGKLIVNQDGFYYLYANICFRHHETSGDLATEYLQLMVYVTKTSIKIPSSHTLMKGGSTKYWSGNSEFHFYSINVGGFFKLRSGEEISIEVSNPSLLAPDQDATYFGAFKVRDID [chain 1 D143A]  2.15 nM
